{"source": "patent US20240301049A1", "about": "(Ablynx, published 2024)", "binders": {"B1": {"name": "F027201062 (bispecific antibody)", "chain": "DVQLVESGGGVVQPGGSLRLSCAASGRTFSNYAMAWFRQAPGKEREFVAVISYAGGRTYYADSVKGRFTISRDNAKNTVYLQMNSLRPEDTALYYCAAVDSPLIATHPRGYDYWGQGTLVTVSSGGGGSGGGSEVQLVESGGGVVQPGGSLRLSCAASGFTFRSFGMSWVRQAPGKGPEWVSSISGSGSDTLYADSVKGRFTISRDNSKNTLYLQMNSLRPEDTALYYCTIGGSLSRSSQGTLVTVSSGGGGSGGGSEVQLVESGGGVVQPGGSLRLSCAASGFTLAYYAIGWFRQAPGKEREGVSCISGSVGTTYYADSVKGRFTISRDNAKNTVYLQMNSLRPEDTALYYCVRSSWFDCGVQGRDLGNEYDYRGQGTLVTVSSGGGGSGGGSEVQLVESGGGVVQPGGSLRLSCTASGFTFSTADMGWFRQAPGKGREFVARISGIDGTTYYDEPVKGRFTISRDNSKNTVYLQMNSLRPEDTALYYCRSPRYADQWSAYDYWGQGTLVKVSSA", "notes": "anti-IL-6 (17C04, 6B12), anti-HSA (ALB23002), anti-TNF-α (6C11), C-terminal alanine; produced in Pichia pastoris; also called ISVD construct F027201062; Nanobody F027201062"}}, "key": {"[1]": {"target": "T1, human TNF-α (human, UniProt P01375 77-233)", "T1 sequence (P01375 77-233 limits assumed)": "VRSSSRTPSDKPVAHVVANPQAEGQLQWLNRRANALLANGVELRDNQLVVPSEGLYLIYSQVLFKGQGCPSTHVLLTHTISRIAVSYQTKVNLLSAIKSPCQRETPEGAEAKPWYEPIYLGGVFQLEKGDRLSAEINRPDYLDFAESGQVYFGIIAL", "experiment": "cell-based or functional assay"}, "[2]": {"target": "T2, cyno IL-6 (cynomolgus monkey, UniProt P79341 28-212, limits assumed)", "T2 sequence (looked up)": "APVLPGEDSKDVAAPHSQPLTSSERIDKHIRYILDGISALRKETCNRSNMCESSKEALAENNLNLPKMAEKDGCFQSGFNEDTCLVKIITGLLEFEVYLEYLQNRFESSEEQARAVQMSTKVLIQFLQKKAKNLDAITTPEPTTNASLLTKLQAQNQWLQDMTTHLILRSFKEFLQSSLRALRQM", "experiment": "cell-based or functional assay"}, "[3]": {"target": "T3, human IL-6 (human, UniProt P05231 30-212)", "experiment": "cell-based or functional assay"}, "[4]": {"target": "T4, cyno TNF-α (cynomolgus monkey, UniProt P79337 77-233)", "T4 sequence (P79337 77-233 limits assumed)": "as the sequence (P01375 77-233 limits assumed) above, with L37V, R44T, T72N, R138L counted along it", "experiment": "cell-based or functional assay"}, "[5]": {"target": "T5, human serum albumin (human, UniProt P02768 25-609)", "T5 construct": "also called HSA; human SA", "T5 sequence (P02768 25-609 limits assumed)": "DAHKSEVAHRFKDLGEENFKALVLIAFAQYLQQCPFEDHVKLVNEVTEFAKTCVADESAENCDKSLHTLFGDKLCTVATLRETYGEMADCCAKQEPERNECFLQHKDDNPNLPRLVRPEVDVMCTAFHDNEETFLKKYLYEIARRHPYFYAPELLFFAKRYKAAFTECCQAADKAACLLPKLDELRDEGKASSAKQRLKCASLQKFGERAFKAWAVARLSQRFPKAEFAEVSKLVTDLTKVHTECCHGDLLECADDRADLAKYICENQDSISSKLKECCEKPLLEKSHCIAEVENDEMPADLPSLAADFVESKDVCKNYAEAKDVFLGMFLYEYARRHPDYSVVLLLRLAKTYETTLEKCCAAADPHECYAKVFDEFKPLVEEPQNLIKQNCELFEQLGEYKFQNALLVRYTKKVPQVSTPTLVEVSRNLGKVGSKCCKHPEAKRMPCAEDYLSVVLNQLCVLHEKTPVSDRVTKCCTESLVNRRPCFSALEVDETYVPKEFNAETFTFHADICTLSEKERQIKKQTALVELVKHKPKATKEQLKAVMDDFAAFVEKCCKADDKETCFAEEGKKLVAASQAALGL", "experiment": "in-solution affinity, Gyrolab", "method": "(§1) Fitting of the dilution series was done using Gyrolab Analysis software, where KD- and receptor-controlled curves were analyzed to determine the KD value."}, "[6]": {"target": "T1, human TNF-α", "experiment": "in-solution affinity, Gyrolab", "method": "as §1"}, "[7]": {"target": "T6, mouse serum albumin (mouse, UniProt P07724 25-608)", "T6 construct": "also called mouse SA", "experiment": "in-solution affinity, Gyrolab", "method": "as §1"}, "[8]": {"target": "T3, human IL-6", "experiment": "in-solution affinity, Gyrolab", "method": "as §1"}, "[9]": {"target": "T4, cyno TNF-α", "experiment": "in-solution affinity, Gyrolab", "method": "as §1"}, "[10]": {"target": "T7, cyno serum albumin (cynomolgus monkey, UniProt A2V9Z4 25-608)", "T7 construct": "also called cyno SA", "T7 sequence (A2V9Z4 25-608 limits assumed)": "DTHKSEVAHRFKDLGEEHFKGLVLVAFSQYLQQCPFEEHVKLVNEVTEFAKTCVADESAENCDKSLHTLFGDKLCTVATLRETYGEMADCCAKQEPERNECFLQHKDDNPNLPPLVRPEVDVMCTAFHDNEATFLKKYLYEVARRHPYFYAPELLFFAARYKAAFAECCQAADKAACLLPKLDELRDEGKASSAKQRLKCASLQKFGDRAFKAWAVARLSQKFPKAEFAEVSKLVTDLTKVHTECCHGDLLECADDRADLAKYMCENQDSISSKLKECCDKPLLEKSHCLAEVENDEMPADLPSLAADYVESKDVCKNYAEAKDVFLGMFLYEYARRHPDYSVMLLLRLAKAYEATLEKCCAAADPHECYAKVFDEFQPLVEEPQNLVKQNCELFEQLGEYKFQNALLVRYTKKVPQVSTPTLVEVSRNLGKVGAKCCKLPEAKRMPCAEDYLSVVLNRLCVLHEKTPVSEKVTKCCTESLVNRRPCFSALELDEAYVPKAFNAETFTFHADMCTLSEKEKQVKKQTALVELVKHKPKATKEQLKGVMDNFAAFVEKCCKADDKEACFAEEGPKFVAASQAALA", "experiment": "in-solution affinity, Gyrolab", "method": "as §1"}, "[11]": {"target": "T8, human membrane TNFα expressed on HEK293H cells (human, UniProt P01375 1-233)", "T8 construct": "whole, on cells; also called membrane expressed TNFα", "T8 sequence (P01375 whole entry)": "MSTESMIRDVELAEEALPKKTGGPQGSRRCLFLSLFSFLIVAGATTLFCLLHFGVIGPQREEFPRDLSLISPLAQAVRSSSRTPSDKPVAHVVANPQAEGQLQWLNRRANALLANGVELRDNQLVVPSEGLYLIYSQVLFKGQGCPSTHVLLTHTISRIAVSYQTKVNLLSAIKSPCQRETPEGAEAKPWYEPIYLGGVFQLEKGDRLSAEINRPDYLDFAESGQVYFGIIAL", "experiment": "flow cytometry, HEK293H cells expressing human membrane TNFα, without HSA, 24 h", "method": "Briefly, cells were fixed with 4% paraformaldehyde and 0.1% glutaraldehyde in PBS (to increase detection of membrane bound TNFα). […] Cells were washed 3 times and subsequently incubated with an anti-VHH mAb (ABH00119) for 30 min at 4° C., washed again, and incubated for 30 min at 4° C. with a goat anti-mouse or anti-human PE labeled antibody. Samples were washed and resuspended in FACS Buffer (D-PBS with 10% FBS and 0.05% sodium azide supplemented with 5 nM TOPRO3). Cell suspensions were then analyzed on an iQuescreener. EC50 values were calculated using GraphPad Prism."}, "[12]": {"target": "T1, human TNF-α", "experiment": "cell-based or functional assay", "remark": "listed apart in the source"}, "[13]": {"target": "T4, cyno TNF-α", "experiment": "cell-based or functional assay", "remark": "listed apart in the source"}, "[14]": {"target": "T9, human IL27 (human, UniProt Q8NEV9 29-243; Q14213 21-229)", "T9 sequence (looked up) 1": "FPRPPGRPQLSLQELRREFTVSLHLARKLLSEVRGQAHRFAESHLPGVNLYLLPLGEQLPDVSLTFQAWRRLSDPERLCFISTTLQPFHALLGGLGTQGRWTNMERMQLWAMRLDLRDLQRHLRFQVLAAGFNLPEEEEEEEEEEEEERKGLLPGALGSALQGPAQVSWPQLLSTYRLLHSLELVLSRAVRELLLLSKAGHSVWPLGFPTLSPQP", "T9 sequence (looked up) 2": "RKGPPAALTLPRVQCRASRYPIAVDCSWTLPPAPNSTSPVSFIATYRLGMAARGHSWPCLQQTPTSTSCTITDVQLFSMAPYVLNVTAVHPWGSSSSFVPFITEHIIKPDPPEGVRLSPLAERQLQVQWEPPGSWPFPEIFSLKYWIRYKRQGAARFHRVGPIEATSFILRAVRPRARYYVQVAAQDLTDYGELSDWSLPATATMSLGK", "experiment": "SPR (ProteOn XPR36), target immobilized"}, "[15]": {"target": "T10, human IL23 (human, UniProt Q9NPF7 20-189; P29460 23-328)", "T10 sequence (looked up) 1": "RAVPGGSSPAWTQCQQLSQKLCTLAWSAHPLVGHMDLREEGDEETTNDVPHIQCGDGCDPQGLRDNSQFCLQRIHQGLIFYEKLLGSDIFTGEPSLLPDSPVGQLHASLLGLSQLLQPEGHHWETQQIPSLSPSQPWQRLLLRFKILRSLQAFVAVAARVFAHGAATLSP", "T10 sequence (looked up) 2": "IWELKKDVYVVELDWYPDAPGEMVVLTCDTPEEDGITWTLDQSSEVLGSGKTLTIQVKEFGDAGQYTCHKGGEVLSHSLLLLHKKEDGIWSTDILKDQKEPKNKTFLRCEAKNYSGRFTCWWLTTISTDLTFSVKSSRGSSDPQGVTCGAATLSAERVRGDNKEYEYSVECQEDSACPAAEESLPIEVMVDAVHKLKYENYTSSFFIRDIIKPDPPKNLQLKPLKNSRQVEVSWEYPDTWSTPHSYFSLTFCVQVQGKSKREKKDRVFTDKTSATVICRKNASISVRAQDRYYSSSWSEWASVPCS", "experiment": "SPR (ProteOn XPR36), target immobilized"}, "[16]": {"target": "T1, human TNF-α", "experiment": "cell-based or functional assay", "remark": "listed apart in the source"}, "[17]": {"target": "T2, cyno IL-6", "experiment": "cell-based or functional assay", "remark": "listed apart in the source"}, "[18]": {"target": "T3, human IL-6", "experiment": "cell-based or functional assay", "remark": "listed apart in the source"}, "[19]": {"target": "T4, cyno TNF-α", "experiment": "cell-based or functional assay", "remark": "listed apart in the source"}, "[20]": {"target": "T2, cyno IL-6", "experiment": "cell-based or functional assay", "remark": "listed apart in the source"}}, "note": "“And” between values parts separate entries of the source, which are not always exact repeats. Identical values can stand only once."}
{"binder": "B1", "values": [{"measurement": "IC50 of SEB-induced CCL4 release, human whole blood", "setting": "[1]", "value": 0.92, "unit": "nM"}, {"measurement": "IC50 of SEB-induced MCP-1 release, human whole blood", "setting": "[1]", "value": 3.2, "unit": "nM"}, {"measurement": "average IC50, NFκB reporter assay", "setting": "[1]", "value": 0.053, "unit": "nM"}, {"measurement": "average IC50, IL-6 induced TF-1 proliferation", "setting": "[2]", "value": 0.056, "unit": "nM"}, {"measurement": "IC50 of IL-17A/sIL-6R induced VEGF-A release, RA-FLS", "setting": "[3]", "value": 2, "unit": "nM"}, {"measurement": "average IC50, IL-6 induced TF-1 proliferation", "setting": "[3]", "value": 0.034, "unit": "nM"}, {"measurement": "average IC50, NFκB reporter assay", "setting": "[4]", "value": 0.158, "unit": "nM"}, {"measurement": "Kd", "setting": "[5]", "value": "7.6 nM and 6.4 nM and 6.2 nM"}, {"measurement": "Kd", "setting": "[6]", "value": "0.0057 nM and 0.0052 nM and 0.0099 nM"}, {"measurement": "Kd", "setting": "[7]", "value": "58.5 nM and 62.2 nM and 56 nM"}, {"measurement": "Kd", "setting": "[8]", "value": "0.0073 nM and 0.0053 nM and 0.003 nM"}, {"measurement": "Kd", "setting": "[9]", "value": "0.0538 nM and 0.0237 nM and 0.0259 nM"}, {"measurement": "Kd", "setting": "[10]", "value": "6.7 nM and 4.9 nM and 6.1 nM"}, {"measurement": "EC50", "setting": "[11]", "value": "0.12 nM and 0.18 nM and 0.17 nM"}, {"measurement": "IC50, HEK293_NFκB-NLucP reporter assay", "setting": "[12]", "value": "0.0757 nM and 0.0257 nM and 0.0586 nM"}, {"measurement": "IC50, HEK293_NFκB-NLucP reporter assay", "setting": "[13]", "value": "0.16 nM and 0.0837 nM and 0.23 nM"}, {"measurement": "binding result", "setting": "[14]", "value": "no binding (tested: 300 nM)"}, {"measurement": "binding result", "setting": "[15]", "value": "no binding (tested: 300 nM)"}, {"measurement": "IC50 hTNF-α Nfkb assay", "setting": "[16]", "value": 0.0978, "unit": "nM"}, {"measurement": "Ratio IC50 cyno IL-6/hIL-6", "setting": "[17]", "value": 0.5, "unit": "ratio"}, {"measurement": "IC50 hIL-6 TF1 proliferation assay", "setting": "[18]", "value": 0.134, "unit": "nM"}, {"measurement": "Ratio IC50 cyno TNFα/hTNFα", "setting": "[19]", "value": 2, "unit": "ratio"}, {"measurement": "IC50, IL-6 induced TF-1 proliferation", "setting": "[20]", "value": "0.0646 nM and 0.0592 nM and 0.0434 nM"}]}
